Results published in publication PMC3235549.

Target: Recombinant RNMT (human) (UniProt O43148)
Sequence of UniProt O43148 (O43148 whole entry): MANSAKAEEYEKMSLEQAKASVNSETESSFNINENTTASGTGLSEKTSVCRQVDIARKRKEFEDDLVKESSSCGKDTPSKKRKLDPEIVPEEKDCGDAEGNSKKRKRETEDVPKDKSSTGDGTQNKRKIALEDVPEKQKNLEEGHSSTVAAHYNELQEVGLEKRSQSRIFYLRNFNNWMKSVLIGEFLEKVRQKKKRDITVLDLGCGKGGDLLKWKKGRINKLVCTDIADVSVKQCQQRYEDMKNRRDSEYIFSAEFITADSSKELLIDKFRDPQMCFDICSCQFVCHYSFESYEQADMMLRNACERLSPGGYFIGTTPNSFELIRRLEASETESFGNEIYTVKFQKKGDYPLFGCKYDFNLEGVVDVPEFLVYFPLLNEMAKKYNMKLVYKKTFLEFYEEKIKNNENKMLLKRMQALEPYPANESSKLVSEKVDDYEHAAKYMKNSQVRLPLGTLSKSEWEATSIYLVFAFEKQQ

For “Recombinant RAM (from UniProt Q9BTL3 1-118) (natural protein)”, the in vitro cap methyltransferase assay, 20 nM RNMT with 20 nM RAM (Figure 3D) was > 4 fold.
